Paper PMC12085566

Target: BG505 SOSIP.664 Env trimer (HIV-1 (isolate BG505))
Assay: cryo-EM structure

4-domain CD4 (receptor)
stoichiometry N (molecules per Env): 3
